Assay [1] concerns the target T1, C5a receptor (Homo sapiens, UniProt P21730).
T1 sequence (P21730 1-350): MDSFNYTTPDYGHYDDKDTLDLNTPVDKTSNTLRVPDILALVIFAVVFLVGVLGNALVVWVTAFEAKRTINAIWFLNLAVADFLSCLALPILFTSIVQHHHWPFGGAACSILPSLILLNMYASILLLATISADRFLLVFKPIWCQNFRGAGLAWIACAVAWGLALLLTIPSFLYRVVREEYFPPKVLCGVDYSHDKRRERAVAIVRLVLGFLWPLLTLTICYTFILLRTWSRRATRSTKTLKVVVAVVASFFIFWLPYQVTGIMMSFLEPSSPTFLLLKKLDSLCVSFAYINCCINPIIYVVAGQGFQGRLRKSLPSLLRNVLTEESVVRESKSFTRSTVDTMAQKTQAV
Nature of the assay: Autocrine yeast expressing human C5a receptor and human C5a, growth read-out (fus1-HIS3). Format: cell-based. Also on record: expressed in transfected cells; host or cells: S. cerevisiae CY455 / CY878 carrying GPA1(41)-Gαi2, plasmid Cadus 1303. The text has this: The strain used for this analysis, CY455 (MATαtbt1-1 ura3 leu2 trp1 his3 fus1-HIS3 can1 ste14::TRP1 ste3*1156), contains the following significant modifications. A pheromone inducible HIS3 gene, fus1-HIS3, is integrated at the FUS1 locus. A hybrid gene containing sequence encoding the first 41 amino acids of GPA1 (the yeast Gα subunit) fused to sequence encoding human Gαi2a (minus codons for the N-terminal 33 amino acids) replaces GPA1 at its normal chromosomal location. The yeast STE14 gene is disrupted to lower the basal level of signaling through the pheromone response pathway. The yeast a-factor receptor gene, STE3, is deleted. The last two modifications are probably not essential but appear to improve the signal-to-noise ratio. […]
Three colonies were picked from each transformation and grown overnight in media lacking leucine and uracil, at pH 6.8 with 25 mM PIPES (LEU^− URA^− pH6.8 with 25 mM PIPES). […] The optical density at 600 nm of a 1/20 dilution of these cultures was determined and the cultures were diluted into 25 mM PIPES pH 6.8 to a final OD600 of 0.2. […] For verification of pheromone pathway activation and quanti-fication of the stimulation, the activity of the fus1 promoter was determined colorometrically using a fus1-lacZ fusion in a similar set of strains. […]

In the next assay the target is T2, induced HL60 cells (Homo sapiens, UniProt P21730).
T2 construct: endogenous in cells; host or cells: induced HL60 cells
T2 sequence (P21730 1-350): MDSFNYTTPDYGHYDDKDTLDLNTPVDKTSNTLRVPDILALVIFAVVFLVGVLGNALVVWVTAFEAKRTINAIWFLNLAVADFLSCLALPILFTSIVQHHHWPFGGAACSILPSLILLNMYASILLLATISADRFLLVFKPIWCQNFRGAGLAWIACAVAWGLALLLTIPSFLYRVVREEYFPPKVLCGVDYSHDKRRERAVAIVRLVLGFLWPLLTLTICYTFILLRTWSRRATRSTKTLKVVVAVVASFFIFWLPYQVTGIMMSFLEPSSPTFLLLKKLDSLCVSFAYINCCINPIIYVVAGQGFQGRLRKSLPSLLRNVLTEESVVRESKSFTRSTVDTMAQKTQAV
Nature of the assay: Competition with radiolabeled C5a for binding on induced HL60 cells. Particulars: C5a expressed in yeast.

Assay [2] has as its target T1, C5a receptor. Also on record: host or cells: mammalian cells (not specified). Particulars: mammalian cells; Boulay et al. 1991; read-out: binding constant of C5a to its receptor; cited from earlier work.
The target of the next assay is T3, yeast Gβγ (Saccharomyces cerevisiae, UniProt P18851+P18852).
T3 construct: Endogenous Gβγ subunits will be provided by the yeast STE4 and STE18 loci; endogenous in cells; host or cells: S. cerevisiae gpa1 tester strains
T3 sequence (P18851 1-423): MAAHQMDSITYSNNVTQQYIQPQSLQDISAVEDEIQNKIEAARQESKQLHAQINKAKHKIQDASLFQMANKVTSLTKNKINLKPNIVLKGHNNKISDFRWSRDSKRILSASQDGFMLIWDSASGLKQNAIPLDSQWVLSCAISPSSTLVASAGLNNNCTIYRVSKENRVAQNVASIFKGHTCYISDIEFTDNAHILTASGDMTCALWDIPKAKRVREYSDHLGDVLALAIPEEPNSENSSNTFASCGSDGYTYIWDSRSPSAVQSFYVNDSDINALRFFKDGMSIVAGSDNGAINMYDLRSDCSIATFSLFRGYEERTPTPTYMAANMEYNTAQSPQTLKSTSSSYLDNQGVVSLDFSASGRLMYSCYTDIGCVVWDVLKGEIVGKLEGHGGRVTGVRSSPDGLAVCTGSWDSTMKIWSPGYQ
T3 sequence (P18852 1-107 limits assumed): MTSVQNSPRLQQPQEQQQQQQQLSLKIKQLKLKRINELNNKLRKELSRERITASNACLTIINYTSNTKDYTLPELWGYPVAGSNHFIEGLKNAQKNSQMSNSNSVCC
The assay can be described thus: Coupling of Gα subunits and hybrids to yeast Gβγ: complementation of gpa1 growth arrest phenotype and fus1-HIS3 transcription. Format: cell-based. The text has this:
We have tested the hypothesis that there are switch region determinants involved in the association of Gα with Gβγ by constructing a series of hybrid Gα proteins encoding portions of GPA1 and GαS in different combinations (FIG. 11).
Preferably, levels of Gα and Gβγ subunits are balanced. For example, heterologous Gα subunits may be expressed from a low copy (CEN ARS) vector containing the endogenous yeast GPA1 promotor and the GPA1 3′ untranslated region. The minimum criterion, applied to a heterologous Gα subunit with respect to its ability to couple functionally to the yeast pheromone pathway, is that it complement a gpa1 genotype when expressed from the GPA1 promoter on low copy plasmids or from an integrated, single copy gene. In the work described in this application, all heterologous Gα subunits have been assayed in two biological systems.

For assay [3], the target named is T1, C5a receptor. Nature of the assay: Coupling of the C5a receptor to Gα chimeras in yeast. More on the design: expressed in transfected cells; host or cells: S. cerevisiae CY455 / CY878 carrying GPA1(41)-Gαi2, plasmid Cadus 1303. The following applies: GPA1 promoter; single copy integrated or low copy plasmid. The class given is cell-based. Here is the method: Coupling by chimeric Gα_proteins._The Gα chimeras described above were tested for the ability to couple a mammalian G protein-coupled receptor to the pheromone response pathway in yeast. Results obtained using GPA141-Gαi2 to couple the human C5a receptor to the pheromone response pathway in autocrine strains of yeast are disclosed in Example 10 above.
With this phenomenon, there is an increase in growth on selective media for strains containing heterologous receptor in the absence of ligand. It is possible that some receptor antagonists would decrease LIRMA. It has been noted (Milano, et al. 1994) that specific antagonists reduce LIRMA of the β2 adrenergic receptor when that receptor is overexpressed in transgenic mice.

Here are results for two molecules from patent US7235648B1, “Yeast cells engineered to produce pheromone system protein surrogates, and uses therefor” (Cadus Technologies, Inc., priority 1993, dated 2007).

B1: C5a: 74 amino acid polypeptide that derives from the fifth component of complement; anaphylatoxin (protein)
chain: TLQKKIEEIAAKYKHSVVKKCCYDGACVNNDETCEQRAARISLGPRCIKAFTECCVVASQLRANISHKDMQLGR
Turning to B1, the “growth on selective plates lacking histidine (pheromone pathway activation via C5a receptor)” value with C5a receptor [1] (CY455 R+L+ strain, pH 6.8, 1 mM aminotriazole) is “show growth on the selective plates”. Further, the “aminotriazole concentration on which the R+L+ strain will grow” value in the assay with C5a receptor [1] (CY455 R+L+, highest concentration tested) is “up to 5 mM”. In addition, the “competition for binding with radiolabeled C5a” value in the assay with induced HL60 cells was “compete for binding”. Further, in the assay with C5a receptor [2], the Kd is 1 nM.

B2: GPA141-Gαi2: first 41 amino acids of GPA1 fused to human Gαi2 (protein)
chain: MGCTVSTQTIGDESDPFLQNKRANDVIEQSLQLEKQRDKNEVKLLLLGAGESGKSTIVKQMKIIHE
B2: in the assay with yeast Gβγ, the “functional complementation of the growth arrest phenotype of gpa1 strains” value is listed as “functionally complement”. The “Result (coupling of the C5a receptor to Gα chimeras in yeast)” value with C5a receptor [3] is recorded as “GPA141-Gαi2single copy, Good signal to noise ratio:”.
